This data set can be described thus: self-splicing fitness, log relative to wild type (ln ratio); higher = more splicing; Tetrahymena group I intron in knt gene, E. coli kanamycin selection, DiMSum; sequences stand for … in CUCUCU…GGAGGGAAAAGUUAUCAGGCAUGCACCUGGUAGCUAGUCUUUAAACCAAUAGAUUGCAUCGGUUUAAAAGGCAAGACCGUCAAAUUGCGGGAAAGGGGUCAACAGCCGUUCAGUACCAAGUCUCAGGGGAAACUUUGAGAUGGCCUUGCAAAGGGUAUGGUAAUAAGCUGACGGACAUGGUCCUAACCACGCAGCCAAGUCCUAAGUCAACAGAUCUUCUGUUGAUAUGGAUGCAGUUCACAGACUAAAUGUCGGUCGGGGAAGAUGUAUUCUUCUCAUAAGAUAUAGUCGGACCUCUCCUUAAUGGGAGCUAGCGGAUGAAGUGAUGCAACACUGGAGCCGCUGGGAACUAAUUUGUAUGCGAAAGUAUAUUGAUUAGUUUUGGAGUACUCGUGGUCG
Put shortly:
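A randomised library covering all eight P1ex-region intron nucleotides was built with the intron in the knt kanamycin-resistance gene on pET-22b(+) and held in E. coli BL21(DE3). Cells were grown overnight at 37°C or 30°C on LB agar, with or without 25 μg/mL kanamycin, plus 100 μg/mL carbenicillin, 50 μM IPTG and 0.2% rhamnose, and pooled colonies were amplicon-sequenced on an Illumina HiSeq 2500. DiMSum fitness is the error-weighted combination of wild-type-normalised replicate fold changes, kanamycin versus none.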

± gives the uncertainty stated by the source.

GACAAGCAAUAUUACGGUGU: the “self-splicing fitness (ln)” value is, setting by setting: (30 °C) -3.98 ± 0.13; (37 °C) -1.9 ± 0.11.
Turning to UCUGAGCAAUAUUACGUUUC, the “self-splicing fitness (ln)” value runs as follows: (30 °C) -2.44 ± 0.22; (37 °C) -0.767 ± 0.21.
Taken in the same sequence, the figures for AGUCAGCAAUAUUACGGCGA were -0.359 ± 0.091 and 0.00759 ± 0.14.
For UCAUAGCAAUAUUACGAAUG, the “self-splicing fitness (ln)” value is, setting by setting: (30 °C) -2.7 ± 0.16; (37 °C) -1.83 ± 0.16.
Taken in the same sequence, the figures for CUGCAGCAAUAUUACGACUU were -2.66 ± 0.14 and -2.25 ± 0.17.
As to GUCCAGCAAUAUUACGACCG, the “self-splicing fitness (ln)” value (30 °C) is -2.21 ± 0.5.
With UGUCAGCAAUAUUACGUAUA, the “self-splicing fitness (ln)” value is -0.245 ± 0.067 (30 °C) and 0.374 ± 0.087 (37 °C).
Taken in the same sequence, the figures for GAACAGCAAUAUUACGUCCA were -0.934 ± 0.089 and -0.369 ± 0.1.
Taken in the same sequence, the figures for GAGGAGCAAUAUUACGGUCA were -2.76 ± 0.21 and -2.19 ± 0.21.
Taken in the same sequence, the figures for ACAGAGCAAUAUUACGAGGA were -3.04 ± 0.21 and -2.49 ± 0.23.
Regarding AUGAAGCAAUAUUACGCUAG, the “self-splicing fitness (ln)” value reads like this: (30 °C) -0.164 ± 0.07; (37 °C) 0.337 ± 0.086.
Taken in the same sequence, the figures for UCCAAGCAAUAUUACGGCAU were -3.77 ± 0.21 and -1.48 ± 0.12.
Taken in the same sequence, the figures for UUAUAGCAAUAUUACGGUUU were -1.66 ± 0.1 and -1.09 ± 0.12.
ACGUAGCAAUAUUACGGUCA: the “self-splicing fitness (ln)” value is -0.681 ± 0.16 (30 °C) and 0.577 ± 0.17 (37 °C).
Taken in the same sequence, the figures for GCGCAGCAAUAUUACGAUGA were -0.132 ± 0.099 and -0.33 ± 0.092.
Taken in the same sequence, the figures for ACGAAGCAAUAUUACGGACC were -0.399 ± 0.17 and -0.661 ± 0.26.
As to UAUGAGCAAUAUUACGAACG, the “self-splicing fitness (ln)” value is -2.98 ± 0.19 (30 °C) and -1.13 ± 0.16 (37 °C).
Taken in the same sequence, the figures for ACAAAGCAAUAUUACGGCAG were -1.1 ± 0.064 and -0.658 ± 0.088.
Taken in the same sequence, the figures for UCCCAGCAAUAUUACGAUAG were -3.91 ± 0.26 and -1.97 ± 0.23.
Taken in the same sequence, the figures for UCUGAGCAAUAUUACGCGGU were -2.71 ± 0.28 and -2.5 ± 0.28.
Consider CCUCAGCAAUAUUACGAAUG, for which the “self-splicing fitness (ln)” value (30 °C) is -1.01 ± 0.089 and the “self-splicing fitness (ln)” value (37 °C) was -0.196 ± 0.1.
Consider GGAGAGCAAUAUUACGGUUG, for which the “self-splicing fitness (ln)” value runs as follows: (30 °C) -2.38 ± 0.22; (37 °C) -2.05 ± 0.38.
As to GCGCAGCAAUAUUACGUGCA, the “self-splicing fitness (ln)” value is -2.09 ± 0.096 (30 °C) and -0.706 ± 0.08 (37 °C).
With AAUCAGCAAUAUUACGACCC, the “self-splicing fitness (ln)” value runs as follows: (30 °C) 0.168 ± 0.15; (37 °C) -0.615 ± 0.16.
Taken in the same sequence, the figures for GCCUAGCAAUAUUACGCUGG were -2.92 ± 0.17 and -3.83 ± 0.42.
As for UAGCAGCAAUAUUACGUGUC, the “self-splicing fitness (ln)” value reads like this: (30 °C) -3.39 ± 0.15; (37 °C) -2.2 ± 0.12.
With CAAGAGCAAUAUUACGGUCA, the “self-splicing fitness (ln)” value was -2.4 ± 0.19 (30 °C) and -2.45 ± 0.23 (37 °C).
Taken in the same sequence, the figures for UCGCAGCAAUAUUACGCGGG were -3.93 ± 0.3 and -3.33 ± 0.33.
With CUCAAGCAAUAUUACGCCAU, the “self-splicing fitness (ln)” value (37 °C) was -1.99 ± 0.37.
In the case of AGAUAGCAAUAUUACGCCGC, the “self-splicing fitness (ln)” value was -3.03 ± 0.3 (30 °C) and -2.04 ± 0.32 (37 °C).
For the sequence UGAGAGCAAUAUUACGCCGC, the “self-splicing fitness (ln)” value (30 °C) was -3.41 ± 0.23 and the “self-splicing fitness (ln)” value (37 °C) was -2.5 ± 0.31.
Regarding GCCCAGCAAUAUUACGGCCG, the “self-splicing fitness (ln)” value (30 °C) is -1.11 ± 0.28.
With UUCUAGCAAUAUUACGAUUA, the “self-splicing fitness (ln)” value (30 °C) is -0.696 ± 0.14 and the “self-splicing fitness (ln)” value (37 °C) was 0.682 ± 0.12.
Taken in the same sequence, the figures for UGCCAGCAAUAUUACGAUCA were -0.629 ± 0.099 and 0.465 ± 0.13.
Consider CGCUAGCAAUAUUACGAAGC, for which the “self-splicing fitness (ln)” value (30 °C) is -1.15 ± 0.37.
In the case of UGUGAGCAAUAUUACGAGAG, the “self-splicing fitness (ln)” value is -3.57 ± 0.23 (30 °C) and -2.44 ± 0.22 (37 °C).
Consider ACACAGCAAUAUUACGCUAC, for which the “self-splicing fitness (ln)” value is -3.73 ± 0.35 (30 °C) and -2.63 ± 0.26 (37 °C).
Turning to UAUUAGCAAUAUUACGAGCA, the “self-splicing fitness (ln)” value (30 °C) is -0.606 ± 0.12 and the “self-splicing fitness (ln)” value (37 °C) is -0.18 ± 0.17.
Taken in the same sequence, the figures for CCUGAGCAAUAUUACGCUGC were -4.04 ± 0.37 and -2.34 ± 0.22.
For GUGAAGCAAUAUUACGGUUG, the “self-splicing fitness (ln)” value runs as follows: (30 °C) -1.71 ± 0.076; (37 °C) -1.13 ± 0.11.
Consider GUCCAGCAAUAUUACGUGUG, for which the “self-splicing fitness (ln)” value (30 °C) was -1.14 ± 0.064 and the “self-splicing fitness (ln)” value (37 °C) was -0.529 ± 0.068.
Taken in the same sequence, the figures for UACAAGCAAUAUUACGGGAG were -3.1 ± 0.12 and -1.49 ± 0.094.
Taken in the same sequence, the figures for GGCUAGCAAUAUUACGGGGU were -2.25 ± 0.1 and -1.29 ± 0.11.
As to UUGUAGCAAUAUUACGAUGC, the “self-splicing fitness (ln)” value (37 °C) was -1.92 ± 0.43.
Consider ACCGAGCAAUAUUACGCCCG, for which the “self-splicing fitness (ln)” value is -2.05 ± 0.29 (30 °C) and -1.28 ± 0.33 (37 °C).
In the case of CAAUAGCAAUAUUACGUCAU, the “self-splicing fitness (ln)” value is -3.6 ± 0.14 (30 °C) and -2.88 ± 0.17 (37 °C).
Taken in the same sequence, the figures for GGUCAGCAAUAUUACGGGCA were -0.684 ± 0.1 and -0.119 ± 0.11.
As for AGACAGCAAUAUUACGGUCA, the “self-splicing fitness (ln)” value is -0.457 ± 0.063 (30 °C) and -0.0714 ± 0.074 (37 °C).
Taken in the same sequence, the figures for GUCUAGCAAUAUUACGAGAC were -3.7 ± 0.24 and -2.34 ± 0.3.
Taken in the same sequence, the figures for AGCCAGCAAUAUUACGGUUC were -4.47 ± 0.19 and -3.66 ± 0.27.
Turning to UCGUAGCAAUAUUACGCGUC, the “self-splicing fitness (ln)” value (37 °C) was -2.59 ± 0.33.
Take AACAAGCAAUAUUACGGCCU: the “self-splicing fitness (ln)” value (30 °C) came to 0.0767 ± 0.082 and the “self-splicing fitness (ln)” value (37 °C) is 0.355 ± 0.1.
GGUUAGCAAUAUUACGGUAG: the “self-splicing fitness (ln)” value runs as follows: (30 °C) -2.79 ± 0.15; (37 °C) -2.28 ± 0.2.
Taken in the same sequence, the figures for UAAUAGCAAUAUUACGGCUC were -2.37 ± 0.23 and -0.201 ± 0.23.
UGACAGCAAUAUUACGACAC: the “self-splicing fitness (ln)” value reads like this: (30 °C) -0.678 ± 0.12; (37 °C) -2.04 ± 0.17.
As to CAUUAGCAAUAUUACGAACC, the “self-splicing fitness (ln)” value by setting is: (30 °C) -3.51 ± 0.46; (37 °C) -1.98 ± 0.34.
CGUGAGCAAUAUUACGGAAC: the “self-splicing fitness (ln)” value (37 °C) was -1.28 ± 0.44.
Take ACUAAGCAAUAUUACGAAAU: the “self-splicing fitness (ln)” value by setting is: (30 °C) -2.67 ± 0.16; (37 °C) -1.22 ± 0.17.
Taken in the same sequence, the figures for UAUCAGCAAUAUUACGGUAG were -1.26 ± 0.083 and 0.0233 ± 0.087.
Taken in the same sequence, the figures for ACCUAGCAAUAUUACGACCA were -1.25 ± 0.16 and 0.323 ± 0.17.
Taken in the same sequence, the figures for GCAAAGCAAUAUUACGUUAU were -1.73 ± 0.084 and -1.54 ± 0.092.
With UCCUAGCAAUAUUACGAUUC, the “self-splicing fitness (ln)” value (37 °C) was -2.2 ± 0.29.

For the origin of these results see the supplement of paper PMC7877785.
